For test [1], the target named is T1, KIAA1284 (Homo sapiens, UniProt Q9ULD6).
T1 construct: made in house; host or cells: E. coli (DH5α, BL21 or JM109)
T1 sequence (Q9ULD6 with tags, fused parts or gaps): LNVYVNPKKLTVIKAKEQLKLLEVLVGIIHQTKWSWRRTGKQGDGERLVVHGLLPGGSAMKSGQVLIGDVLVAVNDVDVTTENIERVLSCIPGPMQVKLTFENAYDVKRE
Kind of test: modified G assay titration, peptide vs constant GST-PDZ domain fusion. It counts as binding. How it is done: (§1) A Nunc Maxisorp 96 well Immunoplate (Nunc cat#62409-002) was coated with 100 μl of 5 μg/ml goat anti-GST polyclonal antibody (Amersham Pharmacia cat#27-457-01) and incubated overnight at 4° C. The plate was blocked by addition of 200 μl Assay Buffer (2% bovine serum albumin in PBS, pH 7.4) for 1 to 2 hours at room temperature, then washed three times in Assay Buffer.
(§2) 50 μl per well of GST-PDZ fusion proteins (5 μg/ml in Assay Buffer), or, as a negative control, GST polypeptide alone, was added to the plate, and incubated for 1 to 2 hours at 4° C.
(§3) Biotinylated peptides were prepared in Assay Buffer, in half the volume required at 40 μM. HRP-Streptavidin (Zymed cat#43-4323) was diluted 1:1000 in another half volume of Assay Buffer, then mixed with the peptides. The peptide-HRP mixtures were incubated for 20 minutes at room temperature. […]
(§4) The plate was then washed five times with room temperature PBS, and developed by addition of 100 μl/well of HRP substrate solution (3,3′,5,5′, tetramethylbensidine (TMB) (Dako cat#S1600)) for a maximum of 30 minutes in the dark at room temperature. The reaction of HRP and its substrate was terminated by addition of 100 μl of 0.18 M H2SO4 (Sigma cat#S1526), and the absorbance of each well of the plate was read at 450 nm.

Test [2] concerns the target T2, GORASP1 d1 (Homo sapiens, UniProt Q9BQQ3).
T2 construct: made in house; host or cells: E. coli (DH5α, BL21 or JM109)
The test is described as above. Type of test: binding. How it is done:
as §1, §2, §3, §4

Test [3] has as its target T3, GST-GORASP1 (PDZ #1) fusion protein (human, UniProt P08515 1-218 = GST).
T3 construct: also called GORASP1 d1; GRASP1; not shown: short vector-encoded linker (Gly-Ile, Gly-Ile-Pro-Gly-Asn or Gly-Ile-Pro, by cloning site); which one in this construct
Kind of test: modified G assay, peptide titrated against a constant amount of immobilized GST-PDZ fusion; Hill fit.

Test [4] deals with T4, GST-KIAA1284 PDZ domain fusion protein (human, UniProt P08515 1-218 = GST).
T4 construct: also called PDZK6; not shown: short vector-encoded linker
T4 sequence (P08515 1-218, tags or fused parts left off): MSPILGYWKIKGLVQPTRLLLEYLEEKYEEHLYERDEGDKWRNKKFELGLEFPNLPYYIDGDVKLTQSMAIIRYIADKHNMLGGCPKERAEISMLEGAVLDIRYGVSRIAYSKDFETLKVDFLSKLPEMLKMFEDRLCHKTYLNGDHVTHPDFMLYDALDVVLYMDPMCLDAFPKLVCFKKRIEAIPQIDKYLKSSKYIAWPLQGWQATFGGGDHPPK
Described as above.

Test [5] has as its target T5, GST-PSD95 d2 (PDZ domain 2) fusion protein (human, UniProt P78352 147-253).
T5 construct: domain: d2; not shown: glutathione-S transferase (GST) encoded by the pGEX-3X vector (Pharmacia); short vector-encoded linker
The test is described as above.

For test [6], the target named is T6, GST-TIP2 PDZ domain fusion protein (human, UniProt O14908 118-223).
T6 construct: domain: PDZ domain; not shown: glutathione-S transferase (GST) encoded by the pGEX-3X vector (Pharmacia); short vector-encoded linker
T6 sequence (looked up): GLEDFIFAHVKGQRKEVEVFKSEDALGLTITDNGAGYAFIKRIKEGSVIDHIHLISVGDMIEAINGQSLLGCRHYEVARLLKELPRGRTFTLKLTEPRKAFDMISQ
Described as above.

Ends that are not written are not given here. Peptide text beside a SMILES is read from it. * marks the point of attachment. Biotin = O=C1N[C@H]2[C@H](CS[C@H]2CCCCC(=O)*)N1

T5 sequence (P78352 147-253): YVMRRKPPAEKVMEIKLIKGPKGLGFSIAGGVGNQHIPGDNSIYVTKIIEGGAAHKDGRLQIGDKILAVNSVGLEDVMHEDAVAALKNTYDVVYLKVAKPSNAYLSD
T3 sequence (P08515 1-218, tags or fused parts left off): as the sequence (P08515 1-218, tags or fused parts left off) above
T2 sequence (Q9BQQ3 1-110): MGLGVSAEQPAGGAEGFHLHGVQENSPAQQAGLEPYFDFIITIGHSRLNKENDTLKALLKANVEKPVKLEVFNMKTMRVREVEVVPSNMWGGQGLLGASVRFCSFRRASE

For `CC[C@H](C)[C@H](NC(=O)[C@H](CCCNC(=N)N)NC(=O)[C@H](CCCNC(=N)N)NC(=O)[C@H](CCCNC(=N)N)NC(=O)[C@H](CCC(N)=O)NC(=O)[C@H](CCCNC(=N)N)NC(=O)[C@H](CCCNC(=N)N)NC(=O)[C@H](CCCCN)NC(=O)[C@H](CCCCN)NC(=O)[C@H](CCCNC(=N)N)NC(=O)CNC(=O)[C@H](Cc1ccc(O)cc1)NC(=O)CCCC[C@@H]1SC[C@@H]2NC(=O)N[C@@H]21)C(=O)NCC(=O)N[C@@H](CCC(=O)O)C(=O)N[C@@H](CC(C)C)C(=O)N[C@@H](CCC(N)=O)C(=O)N[C@@H](CC(C)C)C(=O)N[C@@H](CO)C(=O)N[C@H](C(=O)N[C@@H](C)C(=O)O)[C@@H](C)CC` [Tat-hCLCA1] (HELM PEPTIDE1{[O=C1N[C@H]2[C@H](CS[C@H]2CCCCC(=O)[*:2])N1].Y.G.R.K.K.R.R.Q.R.R.R.I.G.E.L.Q.L.S.I.A}$$$$V2.0), the values for the EC50 in test [1] and in test [2] were 0.074 µM and 0.12 µM, respectively.

B1: Tat-hCLCA1 peptide (11 residues of Tat coupled to the C-terminal 9 amino acids of hCLCA1), biotinylated (peptide)
peptide: Biotin-YGRKKRRQRRRIGELQLSIA
notes: Synthetic peptide, HPLC purified; pre-mixed with HRP-streptavidin in the modified G assay; also called Tat-hCLCA1 (SIA)
Regarding B1, the EC50 in test [3] turned out to be 0.12 µM; in test [4], 0.074 µM; in test [5], 3.1 µM; in test [6] it was 1.1 µM.

A word on the EC50: it is the concentration giving half of the maximal effect. Read a low EC50 as higher potency in that assay.

For the origin of these results see patent US7919584B1, “Methods and compositions for diagnosis and treatment of asthma” (Arbor Vita Corporation, priority 2005, dated 2011).
